From patent publication US20140271675A1 (Eli Lilly, published 2014)

Columns and labels:
[1] = target: hVEGFR1-Fc (R&D 321-fl 050/cf) (human) (UniProt P17948); test: competition ELISA, coated hVEGFR1-Fc, competitor biotin-hVEGFA-165 2 nM; control Ron antibody 0.206 µg/ml
[2] = target: hVEGFR1-Fc (R&D 321-fl 050/cf) (human) (UniProt P17948); test: competition ELISA, coated hVEGFR1-Fc, competitor biotin-hVEGFA-165 2 nM; control Ron antibody 0.069 µg/ml
[3] = target: hVEGFR1-Fc (R&D 321-fl 050/cf) (human) (UniProt P17948); test: competition ELISA, coated hVEGFR1-Fc, competitor biotin-hPLGF1 4 nM; control Ron antibody 0.1852 µg/ml
[4] = target: hVEGFR1-Fc (R&D 321-fl 050/cf) (human) (UniProt P17948); test: competition ELISA, coated hVEGFR1-Fc, competitor biotin-hPLGF1 2 nM; control Ron antibody 0.023 µg/ml
[5] = target: hVEGFR1-Fc (R&D 321-fl 050/cf) (human) (UniProt P17948); test: competition ELISA, coated hVEGFR1-Fc, competitor biotin-hPLGF1 2 nM; control Ron antibody 5.556 µg/ml
[6] = target: hVEGFR1-Fc (R&D 321-fl 050/cf) (human) (UniProt P17948); test: competition ELISA, coated hVEGFR1-Fc, competitor biotin-hVEGFA-165 2 nM; control Ron antibody 0.0206 µg/ml
[7] = target: hVEGFR1-Fc (R&D 321-fl 050/cf) (human) (UniProt P17948); test: competition ELISA, coated hVEGFR1-Fc, competitor biotin-hVEGFA-165 2 nM; control Ron antibody 5.0000 µg/ml
[8] = target: hVEGFR1-Fc (R&D 321-fl 050/cf) (human) (UniProt P17948); test: competition ELISA, coated hVEGFR1-Fc, competitor biotin-hVEGFA-165 2 nM; control Ron antibody 16.667 µg/ml
[9] = target: hVEGFR1-Fc (R&D 321-fl 050/cf) (human) (UniProt P17948); test: competition ELISA, coated hVEGFR1-Fc, competitor biotin-hVEGFA-165 2 nM; control Ron antibody 1.6667 µg/ml
[10] = target: hVEGFR1-Fc (R&D 321-fl 050/cf) (human) (UniProt P17948); test: competition ELISA, coated hVEGFR1-Fc, competitor biotin-hVEGFA-165 2 nM; control Ron antibody 0.5556 µg/ml
[11] = target: hVEGFR1-Fc (R&D 321-fl 050/cf) (human) (UniProt P17948); test: competition ELISA, coated hVEGFR1-Fc, competitor biotin-hVEGFA-165 2 nM; control Ron antibody 5.556 µg/ml
[12] = target: hVEGFR1-Fc (R&D 321-fl 050/cf) (human) (UniProt P17948); test: competition ELISA, coated hVEGFR1-Fc, competitor biotin-hVEGFA-165 2 nM; control Ron antibody 0.1852 µg/ml
[13] = target: hVEGFR1-Fc (R&D 321-fl 050/cf) (human) (UniProt P17948); test: competition ELISA, coated hVEGFR1-Fc, competitor biotin-hPLGF1 4 nM; control Ron antibody 5.0000 µg/ml
[14] = target: hVEGFR1-Fc (R&D 321-fl 050/cf) (human) (UniProt P17948); test: competition ELISA, coated hVEGFR1-Fc, competitor biotin-hPLGF1 2 nM; control Ron antibody 0.069 µg/ml
[15] = target: hVEGFR1-Fc (R&D 321-fl 050/cf) (human) (UniProt P17948); test: competition ELISA, coated hVEGFR1-Fc, competitor biotin-hVEGFA-165 2 nM; control Ron antibody 1.852 µg/ml
[16] = target: hVEGFR1-Fc (R&D 321-fl 050/cf) (human) (UniProt P17948); test: competition ELISA, coated hVEGFR1-Fc, competitor biotin-hVEGFA-165 2 nM; control Ron antibody 0.617 µg/ml
[17] = target: hVEGFR1-Fc (R&D 321-fl 050/cf) (human) (UniProt P17948); test: competition ELISA, coated hVEGFR1-Fc, competitor biotin-hPLGF1 4 nM; control Ron antibody 0.5556 µg/ml
[18] = target: hVEGFR1-Fc (R&D 321-fl 050/cf) (human) (UniProt P17948); test: competition ELISA, coated hVEGFR1-Fc, competitor biotin-hPLGF1 4 nM; control Ron antibody 0.0617 µg/ml
[19] = target: hVEGFR1-Fc (R&D 321-fl 050/cf) (human) (UniProt P17948); test: competition ELISA, coated hVEGFR1-Fc, competitor biotin-hPLGF1 2 nM; control Ron antibody 0.617 µg/ml
[20] = target: hVEGFR1-Fc (R&D 321-fl 050/cf) (human) (UniProt P17948); test: competition ELISA, coated hVEGFR1-Fc, competitor biotin-hPLGF1 2 nM; control Ron antibody 1.852 µg/ml
[21] = target: hVEGFR1-Fc (R&D 321-fl 050/cf) (human) (UniProt P17948); test: competition ELISA, coated hVEGFR1-Fc, competitor biotin-hVEGFA-165 2 nM; control Ron antibody 0.0069 µg/ml
[22] = target: hVEGFR1-Fc (R&D 321-fl 050/cf) (human) (UniProt P17948); test: competition ELISA, coated hVEGFR1-Fc, competitor biotin-hPLGF1 2 nM; control Ron antibody 50.000 µg/ml
[23] = target: hVEGFR1-Fc (R&D 321-fl 050/cf) (human) (UniProt P17948); test: competition ELISA, coated hVEGFR1-Fc, competitor biotin-hPLGF1 4 nM; control Ron antibody 0.0069 µg/ml
[24] = target: hVEGFR1-Fc (R&D 321-fl 050/cf) (human) (UniProt P17948); test: competition ELISA, coated hVEGFR1-Fc, competitor biotin-hPLGF1 4 nM; control Ron antibody 1.6667 µg/ml

hVEGFR1-Fc (R&D 321-fl 050/cf) (human), sequence (P17948 27-758): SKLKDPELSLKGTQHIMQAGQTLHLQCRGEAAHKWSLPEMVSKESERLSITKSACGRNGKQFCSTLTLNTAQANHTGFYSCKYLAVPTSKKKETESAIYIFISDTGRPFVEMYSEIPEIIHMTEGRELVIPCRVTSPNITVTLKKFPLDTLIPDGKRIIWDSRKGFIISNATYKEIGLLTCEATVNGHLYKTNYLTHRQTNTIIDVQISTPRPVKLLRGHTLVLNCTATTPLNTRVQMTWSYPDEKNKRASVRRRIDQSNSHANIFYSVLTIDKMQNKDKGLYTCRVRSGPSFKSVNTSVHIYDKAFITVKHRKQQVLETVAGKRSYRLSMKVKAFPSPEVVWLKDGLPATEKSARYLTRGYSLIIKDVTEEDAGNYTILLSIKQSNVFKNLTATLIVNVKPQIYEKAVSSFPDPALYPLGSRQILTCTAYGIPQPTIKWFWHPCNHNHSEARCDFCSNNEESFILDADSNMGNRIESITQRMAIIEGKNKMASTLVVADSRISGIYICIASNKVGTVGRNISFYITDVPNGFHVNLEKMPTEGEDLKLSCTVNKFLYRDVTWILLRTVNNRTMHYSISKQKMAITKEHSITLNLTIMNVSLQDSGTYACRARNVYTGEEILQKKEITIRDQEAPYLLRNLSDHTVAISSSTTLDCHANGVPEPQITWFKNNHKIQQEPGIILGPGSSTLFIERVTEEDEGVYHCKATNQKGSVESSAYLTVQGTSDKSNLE

- OD560 (bound biotinylated VEGF-A) [1]: 0.554 OD
- OD560 (bound biotinylated VEGF-A) [2]: 0.519 OD
- OD560 (bound biotinylated PlGF) [3]: 0.405 OD
- OD560 (bound biotinylated PlGF) [4]: 0.296 OD
- OD560 (bound biotinylated PlGF) [5]: 0.298 OD
- OD560 (bound biotinylated VEGF-A) [6]: 1.62 OD
- OD560 (bound biotinylated VEGF-A) [7]: 1.51 OD
- OD560 (bound biotinylated VEGF-A) [8]: 0.566 OD
- OD560 (bound biotinylated VEGF-A) [9]: 1.42 OD
- OD560 (bound biotinylated VEGF-A) [10]: 1.47 OD
- OD560 (bound biotinylated VEGF-A) [11]: 0.535 OD
- OD560 (bound biotinylated VEGF-A) [12]: 1.46 OD
- OD560 (bound biotinylated PlGF) [13]: 0.407 OD
- OD560 (bound biotinylated PlGF) [14]: 0.283 OD
- OD560 (bound biotinylated VEGF-A) [15]: 0.53 OD
- OD560 (bound biotinylated VEGF-A) [16]: 0.535 OD
- OD560 (bound biotinylated PlGF) [17]: 0.436 OD
- OD560 (bound biotinylated PlGF) [18]: 0.408 OD
- OD560 (bound biotinylated PlGF) [19]: 0.295 OD
- OD560 (bound biotinylated PlGF) [20]: 0.3 OD
- OD560 (bound biotinylated VEGF-A) [21]: 1.53 OD
- OD560 (bound biotinylated PlGF) [22]: 0.339 OD
- OD560 (bound biotinylated PlGF) [23]: 0.37 OD
- OD560 (bound biotinylated PlGF) [24]: 0.432 OD
Substance: control Ron antibody (R&D MAB691)
